From paper PMC3811445

Target: E. coli EF-G (Δ529SNP531) (E. coli) (UniProt P0A6M8)
Experiment: ITC; performed as described previously (ref 11); conditions not given here

FusB (natural protein)
Kd: 5.8 µM
